Experiments:
[1] = target: T1, EGFR on CHO cells (CHO-EGFR) (UniProt P00533 25-1210, limits assumed); assay: FACS on CHO-EGFR cells, purified IgG, R-PE anti-mouse IgG
T1 construct: whole, on cells
Protocol: (§1) CHO-Her2, CHO-Her4, CHO-EGFR cells were harvested and resuspended in PBS, 2% FBS at a concentration of approximately 1×10⁶/ml. Cells were stained with purified IgGs at 4° C. for 40 min. Cells were washed with 4 mL PBS, 2% FBS, then centrifuged at 1200 rpm for 10 minutes. Supernatant was removed. Cells were stained with R-PE conjugated anti-mouse IgG at 4° C. for 30 min. Cells were washed with 4 mL PBS, 2% FBS, then centrifuged at 1200 rpm for 10 minutes. Supernatant was removed and cell pellets were fixed in 1% formaldehyde. Cells were analyzed on a FACS Calibur (BD Biosciences) by collecting 20,000 events from gate 1.

[2] = target: T2, Her2 on CHO cells (CHO-Her2) (UniProt P04626 23-1255, limits assumed); assay: FACS on CHO-Her2 cells, purified IgG, R-PE anti-mouse IgG
T2 construct: whole, on cells
Protocol: as §1

[3] = target: T3, Her4 on CHO cells (CHO-Her4) (UniProt Q15303 26-1308, limits assumed); assay: FACS on CHO-Her4 cells, purified IgG, R-PE anti-mouse IgG
T3 construct: whole, on cells
T3 sequence (Q15303 26-1308 limits assumed): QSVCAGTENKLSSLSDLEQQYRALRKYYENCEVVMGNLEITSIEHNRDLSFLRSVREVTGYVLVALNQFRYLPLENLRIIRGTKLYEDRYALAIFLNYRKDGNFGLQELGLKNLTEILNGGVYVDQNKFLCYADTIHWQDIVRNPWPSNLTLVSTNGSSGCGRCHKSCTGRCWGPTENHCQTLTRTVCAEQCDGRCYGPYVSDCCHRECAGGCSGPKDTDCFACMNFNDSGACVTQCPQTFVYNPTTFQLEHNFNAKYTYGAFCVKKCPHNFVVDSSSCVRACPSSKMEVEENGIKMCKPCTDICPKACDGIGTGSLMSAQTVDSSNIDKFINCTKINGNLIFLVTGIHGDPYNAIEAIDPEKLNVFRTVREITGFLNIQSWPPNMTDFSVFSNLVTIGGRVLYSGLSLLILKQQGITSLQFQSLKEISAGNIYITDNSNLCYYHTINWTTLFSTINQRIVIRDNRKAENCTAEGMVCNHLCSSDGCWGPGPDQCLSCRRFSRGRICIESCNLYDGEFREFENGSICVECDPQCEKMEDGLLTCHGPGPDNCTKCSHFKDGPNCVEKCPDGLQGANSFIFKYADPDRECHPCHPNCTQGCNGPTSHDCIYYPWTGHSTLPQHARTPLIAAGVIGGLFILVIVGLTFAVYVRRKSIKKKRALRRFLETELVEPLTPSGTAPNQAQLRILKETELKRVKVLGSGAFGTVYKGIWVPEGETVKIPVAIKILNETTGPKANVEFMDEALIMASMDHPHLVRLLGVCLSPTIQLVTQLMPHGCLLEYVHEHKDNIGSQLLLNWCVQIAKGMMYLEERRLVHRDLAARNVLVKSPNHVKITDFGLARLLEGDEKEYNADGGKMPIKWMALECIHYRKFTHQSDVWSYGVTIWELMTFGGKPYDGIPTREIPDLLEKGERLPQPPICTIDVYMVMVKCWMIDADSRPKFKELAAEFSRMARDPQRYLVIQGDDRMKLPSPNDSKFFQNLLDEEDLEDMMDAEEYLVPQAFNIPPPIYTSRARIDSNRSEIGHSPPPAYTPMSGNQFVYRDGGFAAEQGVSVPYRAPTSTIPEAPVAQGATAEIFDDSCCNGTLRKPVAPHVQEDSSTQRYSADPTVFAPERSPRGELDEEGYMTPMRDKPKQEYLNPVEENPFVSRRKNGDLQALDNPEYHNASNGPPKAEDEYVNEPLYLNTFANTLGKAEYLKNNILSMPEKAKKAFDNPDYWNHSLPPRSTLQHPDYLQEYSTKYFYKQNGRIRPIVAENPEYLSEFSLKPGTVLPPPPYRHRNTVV
Protocol: as §1

[4] = target: T4, human Her3 receptor on cells (T47D, MCF7) (human, UniProt P21860 20-1342); assay: cell-based or functional assay
T4 sequence (P21860 20-1342 limits assumed, stated change not applied): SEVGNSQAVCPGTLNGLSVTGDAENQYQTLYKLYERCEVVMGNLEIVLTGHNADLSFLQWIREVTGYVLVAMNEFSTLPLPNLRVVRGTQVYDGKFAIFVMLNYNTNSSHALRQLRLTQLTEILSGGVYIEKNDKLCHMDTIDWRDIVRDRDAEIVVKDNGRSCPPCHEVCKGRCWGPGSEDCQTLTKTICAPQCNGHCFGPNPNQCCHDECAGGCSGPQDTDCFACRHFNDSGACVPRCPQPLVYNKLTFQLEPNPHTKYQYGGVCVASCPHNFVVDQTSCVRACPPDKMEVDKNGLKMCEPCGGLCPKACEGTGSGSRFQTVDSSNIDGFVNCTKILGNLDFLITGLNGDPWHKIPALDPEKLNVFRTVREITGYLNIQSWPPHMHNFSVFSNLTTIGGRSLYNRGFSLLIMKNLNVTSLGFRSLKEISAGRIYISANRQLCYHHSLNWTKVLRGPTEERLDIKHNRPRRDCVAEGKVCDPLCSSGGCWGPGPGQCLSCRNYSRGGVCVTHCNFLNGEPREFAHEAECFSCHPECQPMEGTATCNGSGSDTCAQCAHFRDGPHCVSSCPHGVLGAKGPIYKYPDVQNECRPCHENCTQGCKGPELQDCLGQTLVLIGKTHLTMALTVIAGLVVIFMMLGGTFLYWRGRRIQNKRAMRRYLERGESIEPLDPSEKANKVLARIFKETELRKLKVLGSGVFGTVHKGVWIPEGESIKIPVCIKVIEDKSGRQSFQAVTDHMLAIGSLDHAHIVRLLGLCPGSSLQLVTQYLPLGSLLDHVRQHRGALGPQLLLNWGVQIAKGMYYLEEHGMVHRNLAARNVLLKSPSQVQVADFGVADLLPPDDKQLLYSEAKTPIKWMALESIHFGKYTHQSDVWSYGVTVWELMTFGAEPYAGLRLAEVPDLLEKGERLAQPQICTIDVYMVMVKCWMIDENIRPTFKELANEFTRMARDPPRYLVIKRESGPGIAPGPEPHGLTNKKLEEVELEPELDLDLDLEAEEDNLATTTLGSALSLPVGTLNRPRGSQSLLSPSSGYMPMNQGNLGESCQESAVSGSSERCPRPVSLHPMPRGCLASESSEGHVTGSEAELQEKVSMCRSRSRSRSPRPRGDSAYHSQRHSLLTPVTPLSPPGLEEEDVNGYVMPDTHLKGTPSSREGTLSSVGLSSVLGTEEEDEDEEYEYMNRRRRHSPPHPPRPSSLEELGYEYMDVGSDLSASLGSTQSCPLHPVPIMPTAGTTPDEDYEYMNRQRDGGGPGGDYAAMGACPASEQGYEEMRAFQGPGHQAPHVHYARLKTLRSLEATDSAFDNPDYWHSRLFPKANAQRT

[5] = target: T4, human Her3 receptor on cells (T47D, …); assay: cell-based or functional assay; remark: listed apart in the source
[6] = target: T4, human Her3 receptor on cells (T47D, …); assay: cell-based or functional assay; remark: listed apart in the source
[7] = target: T4, human Her3 receptor on cells (T47D, …); assay: cell-based or functional assay; remark: listed apart in the source
[8] = target: T5, Recombinant Human Her3 (Her3/ErbB3 extracellular domain) (human, UniProt P21860 20-643); assay: SPR (BIAcore), Mab captured by anti-IgG Fc on CM5 chip, recombinant human Her3 as analyte, 25 °C
T5 construct: Analyte of the BIAcore assay; also called Her3 ECD; human Her3/ErbB3 extracellular domain
T5 sequence (P21860 20-643 limits assumed): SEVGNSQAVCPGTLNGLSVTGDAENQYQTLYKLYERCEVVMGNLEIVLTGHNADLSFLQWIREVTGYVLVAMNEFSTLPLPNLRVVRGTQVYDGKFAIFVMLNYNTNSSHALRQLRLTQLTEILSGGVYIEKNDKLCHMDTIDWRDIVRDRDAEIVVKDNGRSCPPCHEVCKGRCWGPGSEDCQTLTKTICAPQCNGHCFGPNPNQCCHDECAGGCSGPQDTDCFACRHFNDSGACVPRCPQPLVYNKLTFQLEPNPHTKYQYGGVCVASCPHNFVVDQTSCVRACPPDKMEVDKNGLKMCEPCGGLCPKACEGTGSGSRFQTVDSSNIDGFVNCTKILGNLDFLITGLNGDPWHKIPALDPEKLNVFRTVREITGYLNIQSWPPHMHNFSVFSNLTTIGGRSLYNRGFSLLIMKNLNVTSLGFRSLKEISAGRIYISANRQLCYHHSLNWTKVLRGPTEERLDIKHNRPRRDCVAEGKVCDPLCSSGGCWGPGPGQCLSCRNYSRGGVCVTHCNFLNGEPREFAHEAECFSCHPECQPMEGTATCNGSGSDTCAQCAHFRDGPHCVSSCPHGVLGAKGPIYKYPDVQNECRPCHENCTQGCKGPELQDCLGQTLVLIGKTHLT
Protocol: All experiments were performed at 25° C. at a flow rate of 40 μl/min. To prepare a BIAcore assay, an anti-human IgG-Fc antibody (50 μg/ml each in acetate buffer, pH 5.0) was immobilized onto a carboxymethyl dextran sensorchip (CM5) using amine coupling procedures as described by the manufacturer. 10000 resonance units (RU) of anti-mouse IgG Fc antibodies were linked respectively onto Flowcells (FC) 1 and 2. Purified Mabs to be tested were diluted at a concentration of 5 μg/ml in 0.5% P20, HBS-EP buffer and injected on FC2 to reach 500 to 1000 RU. FC1 was used as the reference cell. Specific signals correspond to the difference of signals obtained on FC2 versus FC1. The analyte (Recombinant Human Her3, apparent molecular weight 97 kDa) was injected during 90 sec at 5 different concentrations (100, 50, 25, 12.5 and 6.25 nM) in 0.5% P20, HBS-EP buffer. These concentrations were prepared from stock solution in 0.5% P20, HBS-EP. The dissociation phase of the analyte was monitored over a 10 minutes period. Running buffer was also injected under the same conditions as a double reference. After each cycle (antibody+Her3 injection), both Flowcells were regenerated by injecting 20 to 45 μl of Glycine-HCl buffer pH 1.5. This regeneration is sufficient to eliminate all Mabs and Mabs/Her3 complexes captured on the sensorchip. Table 1 listed binding KD for Her3 binding monoclonal antibodies.

Her3/Avi/His10 receptor [9] = target: T6, Her3/Avi/His10 receptor (Homo sapiens (Human), UniProt P21860 20-643, limits assumed); assay: AlphaScreen competition; antibody titrated against 10 nM biotinylated NRG-1 beta and 10 nM Her3/Avi/His10; n = 3
T6 construct: Soluble tagged receptor of the AlphaScreen assay; The antibodies are called anti-hHer3 there; not shown: Avi tag; His10 tag (ten histidines by its name)
T6 sequence (P21860 20-643 limits assumed): as above
Protocol: (§2) SDI or Genovac purified anti-hHer3 Mabs were serially diluted two-fold into an assay buffer made from 25 mM Hepes, 100 mM NaCl, 0.5% BSA and 0.05% Tween20 in an opaque/white, half-well area plate (Costar). Mouse IgG1 antibody was used as a negative control (Southern Biotech; cat #010201). Biotinylated NRG-1 beta ligand and Her3/Avi/His₁₀ receptor were added sequentially at 10 nM concentration to the assay plate containing serially diluted antibodies. This mixture of receptor, ligand and the antibodies was incubated at room temperature with gentle shaking for 90 minutes. AlphaScreen Streptavidin Donor beads and His-Nickel chelate Acceptor beads were added into the assay at a final concentration of 20 μg/ml each. The light sensitive beads were handled under chromagreen filtered light. The assay plates were covered with foil and incubated at room temperature with gentle shaking for 1 hour. The plates were read in PE EnVision plate reader equipped with an Alpha module (dedicated laser for excitation and designed to measure the signal above the well). Table 7 listed IC₅₀ values in ligand blocking that were estimated using four parameter curve fitting with concentration titration graphs (FIGS. 7 A&B).

Her3/Avi/His10 receptor [10] = target: T6, Her3/Avi/His10 receptor; assay: AlphaScreen ligand blocking: antibody titrated against 10 nM biotinylated NRG-1 beta and 10 nM Her3/Avi/His10, % signal
Protocol: as §2

Row | binding result [1] | binding result [2] | binding result [3] | % Receptor Internalization (T47D cells, FACS) [4] | IC50 of inhibition of pHer3 (MCF7 cells stimulated with rhNRG1-β1, ELISA) [5] | IC50 of pAKT inhibition (MCF7 cells stimulated with rhNRG1-β1, ELISA) [6] | IC50 of pERK inhibition (MCF7 cells stimulated with rhNRG1-β1, MSD) [7] | Kd [8] | IC50 (Her3/Avi/His10 receptor [9]) | IC50 (Her3/Avi/His10 receptor [10]) | Binder
1 | no binding | no binding | no binding |  |  |  |  |  |  |  | 588F7 (antibody, V domains shown, Purified mouse IgG from a hybridoma; also called 588F7-HC; 588F7-LC) VH: QVQLQQPGSVLVRPGASVKLSCKASGYTFTNSWILWAKRRPGQGLEWIGEIHPNSGNTNYNEKFKGQATLTVDTSSTTAYVDLSRLTSEDSAVYYCARYEGHWGQGTLVTVSA VL: not shown
2 | no binding | no binding | no binding | 59% | 0.66 nM | 2.05 nM | 4.91 nM | 3.2 nM | 4.1 nM | 1.17 nM | 588F41 (antibody, V domains shown, Purified mouse IgG from a hybridoma; also called 588F41-HC; 588F41-LC) VH: EVQLQQSGPELVKPGASVKMSCKASGYTFTSYVMHWVKQKPGQGLEWLGYINPYNDGTKYNEKFKGMATLTSDKSSSTAYMELISLTSEDSAVYYCAREASYGNPFAYWGQGTLVTVSA VL: DIVMTQSPASLSASVGETVTITCRTSENIYSYLAWFQQKQGNSPQLLVYNTKTLAEGVPSRFSGSGSGTQFSLKINSLQPEDFGNYYCQHHYDTPWTFGGGTKLEIKR
3 | no binding | no binding | no binding | 57% | 1.04 nM | 1.36 nM | 1.8 nM | 3.8 nM | 4.6 nM | 3.03 nM | 588F42 (antibody, V domains shown, Purified mouse IgG from a hybridoma; also called 588F42-HC; 588F42-LC) VH: EVQLQQSGPELVKPGASVKMSCKASGYTFTSYVMHWVKQKPGQGLEWLGYINPYNDGTKYNEKFKGKATLTSDKSSSTAYMELISLTSEDSAVYYCAREASYGNPFAYWGQGTLVTVSA VL: DIVMTQSPASLSASVGETVTITCRTSENIYSYLAWFQQKQGNSPQLLVYNTKTLAEGVPSRFSGSGSGTQFSLKINSLQPEDFGNYYCQHHYDTPWTFGGGTKLEIK
4 | no binding | no binding | no binding | 41% | 6.99 nM | 9.47 nM | 4.62 nM | 2.4 nM | 2.7 nM | 2.9 nM | PO-1C9-C4 (antibody, V domains shown, Purified mouse IgG from a hybridoma; also called PO-1C9-C4-HC; PO-1C9-C4-LC) VH: QVQLQQPGSELVRPGASVKLSCKASGYTFTIFWIHWVKQRPGQGLEWIGNIYPGSGGTNYDEKFKSKATLTVDTFSSTAYMQLSSLTSEDSAVYYCTRWGTGKDYWGQGTTLTVSS VL: DIVLTQSPAIMSASPGEKVTMTCRARSSVSSSYLHWYQQKPGSSPKLWIYSTSNLALGVPARFSGSGSGTSYSLTISSVEAEDAATYYCQQYDSSPFTFGTGTKLEIKR
5 | no binding | no binding | no binding | 51% | 90 pM | 0.14 nM | 1.72 nM | 3.31 nM | 4.9 nM | 2.92 nM | 588E10 (antibody, V domains shown, Purified mouse IgG from a hybridoma; also called 588E10-HC; 588E10-LC) VH: EVQLQQSGPKLVGPGESVKISCKGSGYTFTDYGMHWVKQSHAKRLEWIGVITIYDGHTNYNQNFKGKAALTVDKSSNTAYLELARMTSEDSAIYYCARGDYDLFWYLDVWGAGTTLTVSS VL: DVVMTQTPLSLTVSLGDQASISCRSSQNIKHSDGNTYLEWYLQKPGQSPKLLIYKVSNRFSGVPDRFSGSGSGTDFTLKISRVEAEDLGVYFCFQGSHVPLTFGAGTKLELKR
6 | no binding | no binding | no binding | 53% | 90 pM | 90 pM | 1.44 nM | 2.78 nM | 3.6 nM | 2.08 nM | 588E22 (antibody, V domains shown, Purified mouse IgG from a hybridoma; also called 588E22-HC; 588E22-LC) VH: DVQLQESGPELVGPGESVKISCKGSGYTFTDYGMHWVKQSHAKRLEWIGVITIYDGHTNYNQNFKGKAALTVDKSSNTAYPELARMTSEDSAIYYCARGDYDLFWYLDVWGAGTTVTVSS VL: DVVMTQTPLSLTVSLGDQASISCRSSQNIKHSDGNTYLEWYLQKPGQSPKLLIYKVSNRFSGVPDRFSGSGSGTDFTLKISRVEAEDLGVYFCFQGSHVPLTFGAGTKLELKR
7 | no binding | no binding | no binding | 52% | 70 pM |  | 1.82 nM | 3.04 nM | 2.3 nM | 1.44 nM | 588E14 (antibody, V domains shown, Purified mouse IgG from a hybridoma; also called 588E14-HC; 588E14-LC) VH: EVQLQQSGPELVGPGESVKISCKGSGYAFTDYGMHWVKQSHAKRLEWIGVITIYDGHTNYNQNFKGKAALTVDKSSNTAYLELARMTSEDSAIYYCARGDYDLFWYLDVWGAGTSVTVSS VL: DIVMTQTPLSLTVSLGDQASISCRSSQNIKHSDGNTYLEWYLQKPGQSPKLLIYKVSNRFSGVPDRFSGSGSGTDFTLKISRVEAEDLGVYFCFQGSHVPLTFGAGTKLELKR
